Values of other authors as cited in paper PMC2678197.

Columns and labels:
[1] = target: CCR5 N-terminal peptide (bis-sulfated) N-terminal region (Homo sapiens) (UniProt P51681); test: NMR
[2] = target: CCR5 N-terminal peptide (unsulfated) N-terminal region (Homo sapiens) (UniProt P51681); test: NMR
[3] = target: CCR3 N-terminal peptide (35 residues, non-sulfated) 1-35 (Homo sapiens) (UniProt P51677)
[4] = target: CCR3 N-terminal peptide (truncated, non-sulfated) 8-23 (Homo sapiens) (UniProt P51677)

RANTES, sequence (P13501 27-91): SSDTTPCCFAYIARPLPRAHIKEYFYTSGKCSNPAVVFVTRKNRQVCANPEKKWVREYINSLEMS
eotaxin, sequence (P51671 24-97): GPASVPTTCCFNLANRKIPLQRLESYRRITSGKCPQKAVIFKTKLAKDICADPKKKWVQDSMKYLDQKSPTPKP
CCR3 N-terminal peptide (35 residues, non-sulfated) 1-35 (Homo sapiens), sequence (P51677 1-35): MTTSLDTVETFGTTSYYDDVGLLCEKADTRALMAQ
CCR5 N-terminal peptide (unsulfated) N-terminal region (Homo sapiens), sequence (P51681 1-27): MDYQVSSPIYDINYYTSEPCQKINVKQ

Substance | Kd [1] [µM] | Kd [2] [µM] | Kd [3] [µM] | Kd [4] [µM]
RANTES (from UniProt P13501) | < 20 | 168 | – | –
eotaxin (from UniProt P51671) | – | – | 80 | 136
